Measured values taken from US20250042994A1 (HAINAN SIMCERE ZAIMING PHARMACEUTICAL, published 2025).
Residue numbers refer to the chain shown, from its start.

T1: human CD19 on Raji cells (human, UniProt P15391 20-556)
T1 construct: whole, on cells
T1 sequence (looked up): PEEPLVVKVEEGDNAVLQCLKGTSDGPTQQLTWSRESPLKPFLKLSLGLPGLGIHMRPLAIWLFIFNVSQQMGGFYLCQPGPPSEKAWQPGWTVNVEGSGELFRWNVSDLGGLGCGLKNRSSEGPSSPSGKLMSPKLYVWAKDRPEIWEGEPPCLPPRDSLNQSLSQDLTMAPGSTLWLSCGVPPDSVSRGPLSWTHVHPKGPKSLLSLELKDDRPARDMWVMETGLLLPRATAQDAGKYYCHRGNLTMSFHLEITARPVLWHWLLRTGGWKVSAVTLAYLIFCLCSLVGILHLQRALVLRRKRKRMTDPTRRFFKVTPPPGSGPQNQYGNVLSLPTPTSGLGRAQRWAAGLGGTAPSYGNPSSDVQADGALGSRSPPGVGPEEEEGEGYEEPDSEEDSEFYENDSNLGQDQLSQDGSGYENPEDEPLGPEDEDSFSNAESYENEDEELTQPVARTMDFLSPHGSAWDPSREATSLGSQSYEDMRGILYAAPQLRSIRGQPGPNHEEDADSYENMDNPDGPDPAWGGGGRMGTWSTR

T2: human CD19 on CHO-K1-human CD19 cells (human, UniProt P15391 20-556)
T2 construct: whole, on cells; also called CHO-K1-human CD19-2C8
T2 sequence (looked up): T1 sequence (looked up)

T3: Human CD19-his protein (human, UniProt P15391 20-291)
T3 construct: bought protein; also called recombinant human CD19-His; CD19 full-length protein; not shown: His tag
T3 sequence (looked up): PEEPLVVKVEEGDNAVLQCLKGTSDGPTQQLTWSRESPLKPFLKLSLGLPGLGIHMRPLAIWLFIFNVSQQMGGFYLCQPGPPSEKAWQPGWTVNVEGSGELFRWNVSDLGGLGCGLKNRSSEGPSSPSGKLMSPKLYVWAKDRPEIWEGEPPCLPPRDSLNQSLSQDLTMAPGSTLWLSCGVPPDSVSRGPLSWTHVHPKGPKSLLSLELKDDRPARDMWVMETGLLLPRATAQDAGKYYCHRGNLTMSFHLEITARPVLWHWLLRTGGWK

B1: F5.7.1 (antibody, human IgG1, V domains shown)
VH: QVTLKESGPGILQPSQTLSLTCSFSGFSLTTFGMGVGWIRQPSGKGLEWLTHIWWDDDKYYNPALKSRLTISKDTSKNQVFLRIANVDTADTATYYCARVITTGVPYFDYWGQGTTLTVSS
VL: ENVLTQSPAIMSASPGEKVTMTCRASSSVSSSYLYWYQQKSGASPKLWISSTSNLASGVPARFSGSGSGTSYSLTINSVEAEDAATYYCQQYSGYPWTFGGGTKLEIK
notes: human-murine chimeric antibody, human IgG1
B2: F6.2.9 (antibody, human IgG1, V domains shown)
VH: QVQLQQSGAELVKPGASVKISCKASGYAFSSYWMNWVKQRPGKGLEWIGQIYPGDGDTNYNGKFKGKATLTADKSSSTGYMQLSSLTSEDSAVYFCARSRITSVVDWYFDVWGTGTTVTVSS
VL: QIVLSQSPAILSASPGEKVTMTCRASSSVSYMHWYQQKPGSSPKPWIYATSNLASGVPARFSGSGSGTSYSLTISRVEAEDAATYYCQQWSSNPPTFGAGTKLELK
notes: as for B1
B3: F6.5.20 (antibody, human IgG1, V domains shown)
VH: QVQLQQPGAELVKPGASVKLSCKASGYTFTSYWMQWVKQRPGQGLEWIGEIDPSDSYTNYNQKFKGKASLTVDTSSSTAYMQLSSLTSEDSAVYYCARWGLLRNYYVMDYWGQGTSVTVSS
VL: EIVLTQSPTTMAASPGEKITITCSASSSISSNYLHWYQQKPGFSPKLLIYRTSNLASGVPARFSGSGSGTSYSLTIGTMEAEDVATYYCQQGSSIPRMLTFGAGTKLELK
notes: as for B1
B4: F3.23.10 (antibody, human IgG1, V domains shown)
VH: EFQLQQSGPELVKPGASVKISCKASDYSFTDYNMNWVKQSNGASLEWIGIINPNFGSTSYNQKFKGKATLTVDQSSSTAFMQLNSLTSEDSAVYYCARSEYYGSSGFAYWGQGTLVTVSA
VL: DVVVTQTPLSLPVSFGDQVSISCRSSQSLVNSYGNTYLSWYLHKPGQSPQLLIYGISNRFSGVPDRFSGSGSGTDFTLKITTIKPEDLGMYYCLQGTHQPWTFGGGTKLEIK
notes: human-murine chimeric antibody, human IgG1 constant
B5: F5.11.2 (antibody, human IgG1, V domains shown)
VH: EVQLVESGGDLVKPGGSLKLSCAASGFTFSSYGMSWVRQTPDKRLEWVATISHGGSYTHYPDSVKGRFTISRDNAKNTLYLQMNSLKSEDTAMYYCVRLPITTVEAPYFFDYWGQGTTLTVSS
VL: DIQMTQTTSSLSASLGDRVTISCRASQDIRNYLNWYQQKPDGTVKLLIYYTSILHSGVPSRFSGSGSGTDYSLTINNLEQEDVATYFCQQGNTLYTFGGGTEVELR
notes: as for B4
B6: F3.23.10 (antibody, human IgG1, V domains shown)
VH: B4 VH
VL: B4 VL
notes: as for B1
B7: F4.15.9 (antibody, human IgG1, V domains shown)
VH: QVQLQQSGPELVKPGASVKISCKASGYAFSSSWMNWLKQRPGQGLEWIGRIYPGDGDTNYNGKFKGKATLTADESSSTAYMQLSSLTSVDSAVYFCARGITTIITIAWFASWGQGTLVTVSA
VL: B2 VL with A9T, A59P, E78G, N93D, P95W, A99G, L105I
notes: as for B1
B8: F4.125.12 (antibody, human IgG1, V domains shown)
VH: EVKLVESGGGLVQPGGSLKLSCAASGFTFSTYTMSWVRQTPEKRLEWVAFISSGGGHINYPDTVKGRFTISRDNAKNTLYLQMSSLKSEDTAMYYCARHSYWFFDVWGAGTTVTVSS
VL: DVQITQSPSYLAASPGETITINCRASKNIDTYLAWYQEKPGKTNKLLIYSGSTLQSGIPSRFRGGGSGTDFTLTICSLEPEDFAMYYCQQHNEYPLTFGAGTKLELK
notes: as for B1
B9: F4.145.9 (antibody, human IgG1, V domains shown)
VH: EVQLVESGGGLVKPGGSLKLSCAAAGFAFSSYDMSWVRQIPEKRLEWVAYISAGGGNTYFLDTVKGRFTISRDHAKNTLSLQMSSLKSEDTAMYFCVRHGDYYRYFYAMDYWGQGSSVTVSS
VL: DIVMTQSHKFMSTSVGDRVSITCKASQDVGTAVAWSQQKPGQSPKLLIYWASTRHTGVPDRFTGSGSGTDFTLTISNVQSEDLADYFCQQFVTYPYTFGGGTKLEIK
notes: as for B1
B10: F4.180.1 (antibody, human IgG1, V domains shown)
VH: EVQLQQSAPELVKPGASVKMSCKTSGYTFTENIIHWVKQTHGKSLEWIGGINPDNGGTSYHQKFKGRTTLTIDKSSSTAYMELRSLTSDDSAVFFCARQAPLYWYFDIWGAGTTVTVSS
VL: DIVLTQSPASLAVSLGQRATISCRASESVDSYGNSLMHWFQQKPGQPPRLLIYRASNLESGIPARFSGSGSRTDFTLTITPVEADDVATYYCQQSNEDPWTFGGGTKLEIK
notes: as for B1

How the values were obtained:
human CD19 on Raji cells = target: T1, human CD19 on Raji cells; assay: FACS on Raji cells
From the text: (§1) The desired cells were scale-up cultured in a T-75 cell culture flask to the logarithmic growth phase. For the adherent cell CHO-K1, the medium was aspirated, the cells were washed 2 times with a PBS buffer, and then digested with trypsin. After the digestion was terminated, the cells were washed 2 times with a PBS buffer; and for suspension cell Raji, the supernatant of the medium was discarded by directly centrifugation, and the cell pellet was washed 2 times with PBS. After counting the cells in the previous step, the cell pellet was resuspended with [PBS+2% (w/w) BSA] blocking solution to 2×10⁶ cells/ml, and added to a 96-well FACS reaction plate at 50 μl/well, and then the sample to be tested was added at 50 μl/well, and incubated on ice for 2 h. The obtained mixture was centrifuged and washed 3 times with a PBS buffer. […] The obtained mixture was centrifuged and washed 5 times with a PBS buffer, and FACS (FACS Canto™, purchased from BD Company) was used for detection and result analysis. Data analysis was performed by software (FlowJo) to obtain the mean fluorescence intensity (MFI) of the cells. And then software (GraphPad Prism8) was used for analysis, data fitting, and EC50 value calculation. […] The same method was used to detect the binding of the chimeric antibodies to endogenous CD19-negative cells, MoLT4 cells (purchased from ATCC, CRL-1582), and CHO-K1 cells.

[1] = target: T2, human CD19 on CHO-K1-human CD19 cells; assay: FACS on CHO-K1-human CD19 cells
From the text: as §1

[2] = target: T4, monkey CD19 on HEK293T-monkey CD19 cells (monkey); assay: FACS on HEK293T-monkey CD19 cells
T4 construct: whole, on cells
Method: as §1, with “After” for “The desired cells were scale-up cultured in a T-75 cell culture flask to the logarithmic growth phase. For the adherent cell CHO-K1, the medium was aspirated, the cells were washed 2 times with a PBS buffer, and then digested with trypsin. After”
HEK293T-monkey CD19 cells were subjected to FACS detection and data analysis according to the method in example 5.2. […] The same method was used to detect binding of the chimeric antibodies to HEK293T cells.

Human CD19-his protein = target: T3, Human CD19-his protein; assay: SPR Biacore, Ab captured on Protein A, CD19-His analyte
Method: A sample buffer and a running buffer were HBS-EP+ (10 mM HEPES, 150 mM NaCl, 3 mM EDTA and 0.05% surfactant P20) (GE Healthcare; BR-1006-69). The flow-through cell was set to 25° C. The sample block was set to 16° C. Both were pretreated with the running buffer. In each cycle, an antibody to be detected was first captured with a Protein A chip, and then a single concentration of CD19 antigen protein was injected. The binding and dissociation processes of the antibody and the antigen protein were recorded, and finally Glycine pH 1.5 (GE Healthcare; BR-1003-54) was used to complete chip regeneration. The binding was measured by injecting different concentrations of recombinant human CD19-His proteins in a solution for 240 s with a flow rate of 30 μl/min. The concentration started from 200 nM (see the detailed results for the actual concentration in the test) and was diluted at 1:1, making a total of 5 concentrations. The dissociation phase was monitored for up to 600 s and was triggered by switching from sample solution to running buffer. The surface was regenerated by washing with a 10 mM glycine solution (pH 1.5) for 30 s at a flow rate of 30 μl/min. Bulk refractive index difference was corrected by subtracting the response obtained from the goat anti-human Fc surface. Blank injection was also subtracted (=double reference). For calculation of apparent KD and other kinetic parameters, Langmuir 1:1 model was used.

Binder	EC50 (human CD19 on Raji cells)	Maximum mean fluorescence intensity (human CD19 on Raji cells)	EC50 [1]	Maximum mean fluorescence intensity [1]	Maximum mean fluorescence intensity [2]	EC50 [2]	Kd (Human CD19-his protein)	koff (Human CD19-his protein)	kon (Human CD19-his protein)
B1	1.13 nM	28700	1.54 nM	56200	938	–	–	–	–
B2	0.98 nM	21500	–	10300	2130	86 nM	–	–	–
B3	0.17 nM	28600	~0.17 nM	48300	531	–	–	–	–
B4	–	–	–	–	–	–	5.24 nM	0.000186 s⁻¹	35400 M⁻¹ s⁻¹
B5	–	–	–	–	–	–	1.68 nM	6.15e-05 s⁻¹	36600 M⁻¹ s⁻¹
B6	4.77 nM	14900	3.59 nM	50400	77	–	–	–	–
B7	0.71 nM	31300	0.17 nM	20500	14800	–	–	–	–
B8	0.51 nM	27100	0.48 nM	51800	4080	–	–	–	–
B9	0.78 nM	20000	0.84 nM	48500	108	–	–	–	–
B10	0.96 nM	23700	1.24 nM	49600	94	–	–	–	–
